Results reported in patent US7534592 (Takeda / Millennium, dated 2009).

Molecular target: the molecule itself
Assay: analytical size-exclusion chromatography; self-association (homodimer)

B1: recombinant ACC2 catalytic domain (carboxyltransferase domain of human Acetyl-Coenzyme A Carboxylase 2, residues 1715-2483 of SEQ. ID No. 1) with a … (enzyme)
chain: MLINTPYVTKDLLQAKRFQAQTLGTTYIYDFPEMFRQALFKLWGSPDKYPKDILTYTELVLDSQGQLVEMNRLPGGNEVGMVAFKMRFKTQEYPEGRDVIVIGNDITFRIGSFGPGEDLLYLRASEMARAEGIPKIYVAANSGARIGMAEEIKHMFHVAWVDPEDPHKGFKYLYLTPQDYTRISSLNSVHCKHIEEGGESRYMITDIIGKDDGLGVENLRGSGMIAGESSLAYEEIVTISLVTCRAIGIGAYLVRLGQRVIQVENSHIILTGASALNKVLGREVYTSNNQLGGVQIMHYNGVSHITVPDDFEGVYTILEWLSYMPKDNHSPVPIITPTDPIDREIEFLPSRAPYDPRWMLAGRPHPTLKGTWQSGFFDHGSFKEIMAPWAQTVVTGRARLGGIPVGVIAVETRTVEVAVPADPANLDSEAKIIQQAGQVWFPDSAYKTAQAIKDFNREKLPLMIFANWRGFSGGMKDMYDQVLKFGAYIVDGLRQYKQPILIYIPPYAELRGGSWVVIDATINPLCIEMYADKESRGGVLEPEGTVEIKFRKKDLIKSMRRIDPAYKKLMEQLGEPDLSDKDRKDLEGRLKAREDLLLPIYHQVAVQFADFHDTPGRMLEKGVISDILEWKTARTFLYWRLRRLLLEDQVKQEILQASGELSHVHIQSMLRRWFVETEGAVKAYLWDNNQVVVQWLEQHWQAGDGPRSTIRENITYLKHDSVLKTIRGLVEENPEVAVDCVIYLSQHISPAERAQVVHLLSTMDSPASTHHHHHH
modifications: one acetylation observed by mass spectrometry (position not given)
notes: The entries describe its self-association into the homodimer (two copies of this chain); Expressed in Sf9 insect cells; In the crystal it is in complex with acetyl-CoA, a small molecule; also called carboxyltransferase domain of ACC2; ID No. 3
**Q.** Does B1 bind?
**A.** binds
